# From PMC12703665, “A Trifunctional, Rare-Earth Theranostic Chelator Platform to Enable Diagnostic Nuclear Imaging, Surgical Resection, and Radiotherapy” (Journal of the American Chemical Society, 2025)
# Read-outs that look alike come from different tables or passages of the source.
# Columns and labels:
# [1] = LogD7.4 lipophilicity measurements (1-octanol/DPBS); assay type: physicochemical; conditions: 86Y-labeled tracer, 1-octanol/DPBS pH 7.4
# Experimental: Figure S49. Chromatographic analysis of [177Lu]Lu-PSMA-617 and its corresponding non-radioactive reference complex. Absorbance of non-radioactive samples was monitored at 254 nm.
# [161Tb]TbCl3 (9.34 µL, 4.0 mCi) and PSMA-617 (12.2 µL, 9.80 µM) were dissolved in a mixture of NaOAc buffer (20.0 µL, 1 M, pH 5.5), DMSO (20.0 µL) and water (38.4 µL). The resulting mixture was vortexed and heated at 80 °C for 20 minutes. Quantitative labeling was confirmed via radio-HPLC (Method D, Rt = 7.73 min – Absorbance monitored at 254 nm).
# Figure S50. Chromatographic analysis of [161Tb]Tb-PSMA-617 and its corresponding non-radioactive […]
# 4.3 LogD7.4 Lipophilicity Measurements pepa-pic2, mepa-pic2, pepa2-pic and pepa2-pic-PSMA were radiolabeled with [86Y]YCl3 and formulated in DPBS 1X pH 7.4 at a concentration of 25-29 µCi/mL. […] Samples were centrifuged for 5 min at 5000 rpm to separate (also on this page, place not known: 02468101214161820 Time (min) Normalized Absorbance (a.u) Normalized Counts (cps) 02468101214161820 Time (min) Normalized Absorbance (a.u) Normalized Counts (cps)) […]
# both layers. […] LogD7.4 values calculated according […]
# Female BALB/c mice were purchased from Jackson Laboratory. Biodistribution profiles of Y-86 labeled mepa-pic2, pepa-pic2 and […] were first evaluated in healthy naïve mice. […]
# Table S1. […] Values expressed as % ID/g. Error expressed as ± 1 SD for n = 4. […]
# [2] = system: PC-3 PIP/flu (PSMA+/PSMA–) tumor xenografts
# Experimental: For in vivo evaluation, athymic nude mice-bearing bilateral PC-3 PIP/flu (PSMA^+/PSMA^–) tumor xenografts were used (Figure ).
# Representative PET-CT (Y-86) or SPECT (Lu-177, Tb-161) images were acquired at different time points starting as early as 0.5 h and up to 25-hours post administration of radiotracer. Mice were initially anesthetized with isoflurane gas at 4% isoflurane in oxygen and maintained during scans at 2.0%. PET-CT and SPECT images were normalized to units of percentage of injected dose per cubic centimeter and presented as maximum intensity projected scan (MIPS) images.
# PET-CT scans were acquired in a Siemens Inveon Hybrid MicroPET/CT Scanner (Siemens Medical Solutions USA, Inc., Knoxville, TN), and image processing and region of interest (ROI) analysis conducted using the Inveon Research Workstation analysis software. ROI analysis of the PET/CT images was used to estimate tracer uptake in major organs or tissues, and quantitative results are given as percentage of injected dose per cubic centimeter (%ID/cc).
# SPECT scans, on the other hand, were collected in a MILabs U-SPECT/CTUHR (ultra high-resolution) system and image processing was carried out using Imalytics preclinical image analysis software.
# [3] = mouse, in vivo
smiles,measurement,setting,value
"COCCOCCOCCOc1ccc(C#Cc2cc(CN3CCN(Cc4cccc(C(=O)O)n4)CCN(Cc4cc(SC[C@H](N)C(=O)NCCCCCC(=O)NCCCC[C@H](NC(=O)N[C@@H](CCC(=O)O)C(=O)O)C(=O)O)cc(C(=O)O)n4)CC3)nc(C(=O)O)c2)cc1 [[86Y]Y-pepa-pic2-C-Hex-KuE, metal not drawn]",logD7.4,[1],−2.98
same,Bone (ROI),[2]; 0.5 h,1.3 ± 0.5 %ID/cc
same,Heart (ROI),[2]; 0.5 h,1.7 ± 0.5 %ID/cc
same,L. Kidney (ROI),[2]; 0.5 h,12.7 ± 1.6 %ID/cc
same,Liver (ROI),[2]; 0.5 h,1.4 ± 0.5 %ID/cc
same,Muscle (ROI),[2]; 0.5 h,0.8 ± 0.3 %ID/cc
same,R. Kidney (ROI),[2]; 0.5 h,12.0 ± 2.4 %ID/cc
same,Tumor + (ROI),[2]; 0.5 h,4.6 ± 1.7 %ID/cc
same,accumulation in the PSMA- tumor (PET/CT),[2]; 0.5 h post-injection,no significant accumulation
same,Bone (ROI),[2]; 1 h,1.0 ± 0.5 %ID/cc
same,Heart (ROI),[2]; 1 h,1.2 ± 0.3 %ID/cc
same,L. Kidney (ROI),[2]; 1 h,12.2 ± 5.5 %ID/cc
same,Liver (ROI),[2]; 1 h,1.1 ± 0.3 %ID/cc
same,Muscle (ROI),[2]; 1 h,0.8 ± 0.4 %ID/cc
same,R. Kidney (ROI),[2]; 1 h,11.9 ± 3.0 %ID/cc
same,Tumor + (ROI),[2]; 1 h,4.4 ± 1.8 %ID/cc
same,Bone (ROI),[2]; 1.5 h,0.8 ± 0.4 %ID/cc
same,Heart (ROI),[2]; 1.5 h,1.0 ± 0.5 %ID/cc
same,L. Kidney (ROI),[2]; 1.5 h,12.2 ± 3.4 %ID/cc
same,Liver (ROI),[2]; 1.5 h,0.9 ± 0.4 %ID/cc
same,Muscle (ROI),[2]; 1.5 h,0.6 ± 0.4 %ID/cc
same,R. Kidney (ROI),[2]; 1.5 h,12.7 ± 2.9 %ID/cc
same,Tumor + (ROI),[2]; 1.5 h,5.2 ± 1.8 %ID/cc
same,Bone (ROI),[2]; 4 h,0.5 ± 0.3 %ID/cc
same,Heart (ROI),[2]; 4 h,0.5 ± 0.3 %ID/cc
same,L. Kidney (ROI),[2]; 4 h,8.8 ± 1.9 %ID/cc
same,Liver (ROI),[2]; 4 h,0.7 ± 0.4 %ID/cc
same,Muscle (ROI),[2]; 4 h,0.4 ± 0.2 %ID/cc
same,R. Kidney (ROI),[2]; 4 h,8.8 ± 2.3 %ID/cc
same,Tumor + (ROI),[2]; 4 h,5.2 ± 1.7 %ID/cc
same,Bone (ROI),[2]; 25 h,0.3 ± 0.2 %ID/cc
same,Heart (ROI),[2]; 25 h,0.1 ± 0.1 %ID/cc
same,L. Kidney (ROI),[2]; 25 h,4.0 ± 1.2 %ID/cc
same,Liver (ROI),[2]; 25 h,0.3 ± 0.2 %ID/cc
same,Muscle (ROI),[2]; 25 h,0.3 ± 0.3 %ID/cc
same,R. Kidney (ROI),[2]; 25 h,4.0 ± 1.2 %ID/cc
same,Tumor + (ROI),[2]; 25 h,3.3 ± 1.0 %ID/cc
same,probe remaining intact (urine metabolite analysis),[3],> 93%
